In PMC7859202, “A scaffold lncRNA shapes the mitosis to meiosis switch”:

T1: RRM3Mei2 (Schizosaccharomyces pombe, UniProt P08965 579-750)
T1 sequence: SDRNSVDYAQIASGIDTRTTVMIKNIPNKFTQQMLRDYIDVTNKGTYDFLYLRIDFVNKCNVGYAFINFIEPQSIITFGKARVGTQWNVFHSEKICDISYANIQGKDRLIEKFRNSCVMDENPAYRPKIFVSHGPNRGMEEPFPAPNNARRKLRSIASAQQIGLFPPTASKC

B1: U7GU7 (ssRNA)
RNA: UUUUUUUGUUUUUUU
B2: poly-U15 (ssRNA)
RNA: UUUUUUUUUUUUUUU
B3: GCUUUUUGUUCG 12-mer (ssRNA)
RNA: GCUUUUUGUUCG
B4: U6GGU7 (ssRNA)
RNA: UUUUUUGGUUUUUUU

Each binder was assayed against T1, RRM3Mei2 (assay: ITC; ITC: 20 mM Tris-HCl pH 7.5, 200 mM NaCl, 5 mM 2-mercaptoethanol, 20 °C; N fixed to 1). Conditions: protein: recombinant; tags: GST-tag removed by 3C protease.
B1 gave a Kd of 145 ± 26 nM.
Binder B2 has a Kd of 1430 ± 194 nM.
B3 was tested, and the Kd was 555 ± 166 nM.
B4 gave a Kd of 435 ± 112 nM.
